Test system: MS2 coat protein
Assay: apparent KD of MS2 coat protein; higher = weaker reporter binding
Conditions: Eterna round: R107
Procedure, shortened: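 Each design's apparent KD comes from the median of binding-curve fits to its normalised clusters. Those clusters carried RNA switches transcribed on-chip from Illumina sequencing clusters. SNAP-549-labelled MS2 coat protein was titrated onto them in twofold steps (0.7 or 1.5 nM to 3 µM; per step 0.8–1.5 h down to 10–20 min). Conditions were 100 mM Tris-HCl pH 7.5, 80 mM KCl, 4 mM MgCl2, without or with constant ligand.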

[1] = input ligand: theophylline 20 uM
[2] = input ligand: theophylline 2 mM
[3] = input ligand: tryptophan 2.4 mM

Sequence | apparent KD of MS2 coat protein (input ligand: arginine 13.2 mM) | apparent KD of MS2 coat protein (input ligand: none) | apparent KD of MS2 coat protein [1] | apparent KD of MS2 coat protein [2] | apparent KD of MS2 coat protein [3]
AUGCAUAGCGGAAGGAGCGCAAUAGAAUGACAUGAGGAUCACCCAUGUGUGUGAUGUGGGUUGCAGGUAGGUCGCCGAGUGGCAU [#11 Exclusion - Arginine B] | 77.6 nM | 80.9 nM | 95.9 nM | 127 nM | 59.1 nM
AGUGGGUGUUAUGAUACCAGCGUAAUACACAACAUGAGGAUCACCCAUGUGGAGCCUCGCCGCCCUUGGCAGCAUUGGGCCCGCA [theeternabot_sameState_MS2_Theo_B_4] | 115 nM |  | 237 nM |  | 223 nM
AAAUGAAGGCGAAGGAGCGCGAACAUGAGGAUCACCCAUGUGUAUGUAUGUAGUCAUGUAUCGCAGGUAGGUCGCGCUGUUACAU [Exclusion Arginine B] | 106 nM | 278 nM | 276 nM | 352 nM | 271 nM
GCGGAAUAAUCGGCCGCCACUAUGAGACAGGAAACUGUCACAUGAGGAUCACCCAUGUAUCCUCAUAGGACCGGGAUUAAAACGC [Melting point difference] | 76.8 nM |  | 109 nM | 100 nM | 
AACAUGGGAUUAAAAUAAAUAAUAACUGAUACCAGACUAUAUAAUGUCCCUUGGCAGCAGAUACAUGAGGAUCACCCAUGUAUUA [JR_Nu_ExcTheophyA_Sub023] | 12.2 nM |  | 14.9 nM |  | 12.8 nM
GUUGGAUGCUCGGCCGCCACUGAGAGAGUCAUGUGAACAUGAGGAUCACCCAUGUAAUAUAUAUACAGGACCGGGAGUGUUGUAA [4.J] | 19.7 nM | 19.5 nM | 50.6 nM | 25 nM | 13.3 nM
UGUUAUGUGGGAAGGAGCGCAUACUUCACAUGAGGAUCACCCAUGUCAAGACGUGAGUCAGUGCAGGUAGGUCGCCUAGUUAAGA [Same State - Arginine B (Freestyle 17)] | 36 nM | 73.9 nM | 75.1 nM | 78.8 nM | 45 nM
UGCACUCAUGCGGCCGCCACUGUCGGCCGCCACUAAACAUGAGGAUCACCCAUGUAGGACCGGGACAGGACCGGGCAUGGGUGCU [TryBS - #DoubleAptamer 2] | 12.9 nM | 15.7 nM | 20.7 nM | 13.8 nM | 9.97 nM
UCGACAAGAACAAUAAACAGCACUUGAGAAGGAGCGCGGAAAUCCGCAGGUAGGUCGCUCAUGUGUACAUGAGGAUCACCCAUGU [Inveonxeed] | 32.6 nM | 39.7 nM | 49.3 nM | 40.8 nM | 34.5 nM
CGAUGAUGAAGGGAUACCAGAAAUGGUAUUCCUUUAUUUCUUACAUGAGGAUCACCCAUGUUCCCUUGGCAGCUUUUUAUCAUCG [ETHB #6] | 49.3 nM |  | 82.6 nM |  | 64.4 nM
AAUGUGAUAGUCGUACUCUCACACUGAGAAGGAGCGCGAAAGUUCGCAGGUAGGUCGCUCAGUUAUACAUGAGGAUCACCCAUGU [Edgeised] | 21.9 nM | 21 nM | 26.8 nM | 27.3 nM | 20.9 nM
AACAUCACAACGGCCGCCACUGCACAUGACAACAUGAGGAUCACCCAUGUGGAUCACCCAUGUCCCAGGACCGGGUUAUGAGGAU [Same State - Tryptophan B #1] | 23.7 nM |  | 39.9 nM | 33.6 nM | 
UUAUUUAACGGAAGGAGCGCGGAAAUUAAGGUGGGUAAACAUGAGGAUCACCCAUGUAAUCCGCAGGUAGGUCGCCGAUAUUUAU [#24 Exclusion - Arginine B] | 86.1 nM | 156 nM | 136 nM | 119 nM | 112 nM
AAGAAAACAUGAGCAAAGCUCAUGUGCGAAGGAGCGGCGGAAACGCCAGGUAGGUCGCGCACAUGAGCAUCAGCCAUGUGUAUCA [Omei Arginine B SS A v3] | 43.5 nM | 36.7 nM | 76.9 nM | 101 nM | 19.4 nM
CAUGAAGUAACUGAUACCAGUGUACACAUGAGGAUCACCCAUGUGUUGGGUUUUGUUGUACACCCUUGGCAGCAGAAUCUUUAUG [AstrosExyTheB#8] | 42.4 nM |  | 84.3 nM |  | 51.2 nM
AGAAUAUAGUCGGCCGCCACUCUUCAUACAUGAGGAUCACCCAUGUUUAAUUCUUGGAUAUUCUUGAGGACCGGGACAUAGGCAU [JR_SSTryptoB_Sub019] | 18 nM |  | 23.1 nM | 21.6 nM | 
GACAUGAGGAUCGAUACCAGCGACAUGAGGAUCACAUGAGGAUCACCCAUGUGUAGUAUACGCCCUUGGCAGCGAACAUGAGGAU [Same State Theophylline B 3] | 74.3 nM | 51.4 nM | 71.2 nM | 39.2 nM | 32.3 nM
ACGAUAGGGCAUGAGGAUCACCCAUGUGAUACCAGCCUGGAAACAGGCCCUUGGCAGCAUUAAUACUCCAAUAACCUAUCGAAUA [TheoAX 17 #MicroSwitchBubble #AlternativeMS2] | 91.5 nM | 129 nM | 184 nM | 864 nM | 111 nM
ACGACGCAUAGUGAUACCAGUAGAACAUGAGGAUCACCCAUGUCUGUGGCGCUCCGCCUCUGCCCUUGGCAGCACUAUGCGUCAG [SSTheo B #10] | 11.9 nM |  | 17 nM |  | 11.4 nM

Sequence | apparent KD of MS2 coat protein (input ligand: arginine 13.2 mM) | apparent KD of MS2 coat protein (input ligand: none) | apparent KD of MS2 coat protein [1] | apparent KD of MS2 coat protein [2] | apparent KD of MS2 coat protein [3]
AGGUGGGUCUGAAGGAGCGCGAUAACAUGAGGAUCACCCAUGUUAAAUGGUACAUGAUACUCGCAGGUAGGUCGCAGUAAAACCA [Same State Arginine B GF 12] | 25 nM | 84.4 nM | 73.1 nM | 93.8 nM | 53.1 nM
UGUAUGGACUGAAGGAGCGGGAAAUAAACUUGAGGAUCACCCAGGUAAUAGGCGAAAGCCACCCAGGUAGGUCGCAGUCCAUACU | 22 nM | 24.3 nM | 38.5 nM | 45.7 nM | 28.5 nM
AAUAACAUGAGGAUCACCCAUGUAAAAGAUACCAGAGUGAUGAUCCUCCCUUGGCAGCUUAAACGCUAUUGGAAACAAUAGCGAA [Mat - Same State Theophlline A - Mod of Eli - D3] | 54.5 nM |  | 163 nM |  | 57.7 nM
AGUAAUCUAUCAGAUACCAGACCCUCUUUAACAUGAGGAUCACCCAUGUCUAUGUUCUACGUCCCUUGGCAGCUGUAAAUGAUAA [JR_SSTheophyB_Sub002] | 34.9 nM |  | 80 nM |  | 57.7 nM
AGCGACAUGCAUGAUACCAGCUACAUGAGGAUCACCCAUGUACGUCAGUAAUGACUGUGUAGCCCUUGGCAGCAUAGAGCAUGUU [Exclusion - Theophylline B (Freestyle 15)] | 15.7 nM |  | 29.3 nM |  | 16.5 nM
UUCGUUUACGGAAGGAGCGACGGACAUCGGUGAUCUAUGCACAUGAGGAUCACCCAUGUACGUCAGGUAGGUCGCCGUUAAGAGU [XArg-B28] | 28.4 nM | 80.8 nM | 96.5 nM | 184 nM | 9.59 nM
AGGAAACAACAUGAGGAUCACCCAUGUGAUACCAGUAUCAAAAGAUACCCUUGGCAGCACACAUGACAUGAGGAUCACCCAUGUA [AstrosSSTheA#2] | 33.2 nM |  | 52.4 nM |  | 74.4 nM
GUUUUAUCAAAAGAUGAAACAGUGGGUGAACGAGGACCGGUACGGCCGCCACUCGGACAUGAGGAUCACCCAUGUCCAUGUGAAA [AstrosExyTryA#13] | 15.4 nM | 18.4 nM | 17.1 nM | 21.1 nM | 54.1 nM
AGCACUGUGACGGCCGCCACUAUAUAUAGGGUGGUCAGGUUCAUAAUACAUGAGGAUCACCCAUGUAGGACCGGGUCUCAGUGCA [Omei Trp Exc B A v4] | 14.5 nM | 12 nM | 14.9 nM | 10.9 nM | 14 nM
AUAACAGUGUCGGCCGCCACUAGAACACAUGAGGAUCACCCAUGUGGUGGUACCUCCUAAGACGAUAGGACCGGGACCCAUCUAC [theeternabot_exclusion_MS2_Trp_B_12] | 50.4 nM |  | 108 nM | 143 nM | 
AUGCACCUCGUCCAGGCAAUCUUUAGUGAUACCAGCUAACUCCUUGGCCCUUGGCAGCACAUGAGGAUCACCCAUGUGCGACAUC [Tidile] | 11.1 nM |  | 14.9 nM |  | 13.9 nM
UUAAUCAUUGAUGAAAACAUUAAUGCAGAAGGAGCGUGAUAAAACACAGGUAGGUCGCUGAAGGGAACAUGAGGAUCACCCAUGU [AstrosSSArgA#16] | 27.3 nM | 28.1 nM | 36.5 nM | 33.6 nM | 30.8 nM
GGACUCGUCACGGCCGCCACUGCGGUGGUGUGACAUGAGGAUCACCCAUGUUGUCAUGCGGCCCUUAGGACCGGGUGUCGCGUCC [#1 Exclusion - Tryptophan B Attempt #25 (HarryS)] | 49.7 nM |  | 100 nM | 93.8 nM | 
GACGGGCCUAUUGAUACCAGACCUAGUGACAACAUGAGGAUCACCCAUGUGACGGCAAAAGUCCCUUGGCAGCAAGUAGAAAUAA [theeternabot_sameState_MS2_Theo_B_41] | 14 nM |  | 16.6 nM |  | 15.4 nM
CGCACAUGAGGAUCACCCAUGUGAGGGCGUCGAGGACCGGUACGGCCGCCACUCGCAGGACAUGAGGAUCACCCAUGUGCCGCCG [SSTA DOUBLE!!! :-D #4] | 39.8 nM |  | 131 nM | 145 nM | 
ACAUGAGGAUCACCCAUGUUGAACUACCAUCGAGGACCGGUACGGCCGCCACUCGCGUUCUCCUUAGCAUCAAGGUCCGCGAAAC [theeternabot_exclusion_MS2_Trp_A_1] | 10.3 nM |  | 15.3 nM | 13.6 nM | 
GAGGUCCUGAGAGAUACCAGUGAGGCCACAUGAGGAUCACCCAUGUCCCUCACUCCGGCCCACCCUUGGCAGCUCGGAAGGUAAA [Exclusion Theophylline B GF 23] | 14.9 nM |  | 29.7 nM |  | 17.5 nM
GUUGGUUUGGGAAGGAGCGGGUAUGUUGUCUACUUGAUCCUAACAUGAGGAUCACCCAUGUCCCAGGUAGGUCGCCCAAGCUUUG [12.aE] | 69.8 nM | 161 nM | 152 nM | 316 nM | 186 nM
CUAUAAGUAACUGAUACCAGUGUACUGACAUGAGGAUCACCCAUGUUGGGUUUUGUUGUACACCCUUGGCAGCAGAAUCUUAUAG [AstrosExyTheB#14] | 38.9 nM | 63.8 nM | 70.3 nM | 111 nM | 72.5 nM
